This note sets out measurements from paper PMC13645619.

In experiment [1] the target is AP-7-168-stabilized β2AR dimer (construct PN1) (UniProt P07550). Nature of the experiment: BLI.
For experiment [2], the target named is β2-adrenergic receptor (β2AR), construct PN1, monomeric (UniProt P07550). As to the kind of experiment: BLI.

As to “heterotrimeric Gs (Gαsβ1γ2) (from UniProt P63092;P62873;P59768) (complex)”, the Kd in experiment [1] was 3.11 µM; in experiment [2], 1.71 µM.
